What is called Kd is the constant that tells how readily two partners part at equilibrium.

For experiment [1], the target named is T1, recombinant mouse proNGF (rm-proNGF) (mouse, UniProt P01139 19-241).
T1 construct: Pro-form of NGF
As to the kind of experiment: SPR (BIAcore 2000), antibody immobilized (3000 RU), rm-proNGF injected, kinetic analysis. As for the experimental part: For rm-proNGF binding (panel C), the immobilization of the antibody was of 3000 RU.
(§1) Experiments were performed on CMS5 chips with amine coupling, using a BIAcore 2000 machine. Coupling was performed with a specific kit purchased at BIAcore and the coupling reaction was carried out according to manufacturer's instructions.
(§2) Anti-NGF antibodies were immobilized on chip, while mouse NGF (m-NGF, Alomone) or recombinant mouse proNGF (rm-proNGF) were injected at decreasing concentrations to obtain binding curves.
(In general: In SPR one partner is held on a chip, and binding of the other changes the refractive index at the surface.)

Experiment [2] has as its target T2, mouse NGF (m-NGF, Alomone) (mouse, UniProt P01139 122-241).
T2 construct: mature
Briefly: SPR (BIAcore 2000), antibody immobilized by amine coupling, m-NGF injected. As for the experimental part:
For m-NGF binding, the immobilization of the antibody was of 3000 resonance units (RU) in the experiment of panel A and of 6000 RU in the experiment of panel B. The injected concentrations of the m-NGF are indicated on top of each curve.
as §1, §2

T1 sequence (P01139 19-241): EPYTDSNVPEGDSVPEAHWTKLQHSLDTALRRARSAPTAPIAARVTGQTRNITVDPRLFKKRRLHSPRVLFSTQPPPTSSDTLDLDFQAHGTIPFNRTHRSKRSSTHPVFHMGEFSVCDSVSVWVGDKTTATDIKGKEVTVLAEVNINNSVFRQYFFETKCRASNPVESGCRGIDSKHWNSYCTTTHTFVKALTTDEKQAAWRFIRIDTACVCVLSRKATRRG
T2 sequence (P01139 122-241): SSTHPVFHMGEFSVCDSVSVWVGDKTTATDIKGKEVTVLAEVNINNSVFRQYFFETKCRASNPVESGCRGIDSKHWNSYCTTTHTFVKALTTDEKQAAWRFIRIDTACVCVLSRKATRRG

B1: αD11 anti-NGF antibody (antibody, V domains shown)
VH: QVQLKESGPGLVQPSQTLSLTCTVSGFSLTNNNVNWVRQATGRGLEWMGGVWAGGATDYNSALKSRLTITRDTSKSQVFLKMHSLQSEDTATYYCARDGGYSSSTLYAMDAWGQGTTVTVSA
VL: DIQMTQSPASLSASLGETVTIECRASEDIYNALAWYQQKPGKSPQLLIYNTDTLHTGVPSRFSGSGSGTQYSLKINSLQSEDVASYFCQHYFHYPRTFGGGTKLELK
notes: Rat monoclonal antibody purified from hybridoma supernatant and immobilized on the chip; The tie to αD11 is indirect; also called alphaD11; aD11
As for B1, the results for the Ka in experiment [1] and in experiment [2] were 1.2e+09 M⁻¹ and 3.55e+11 M⁻¹, respectively. The Kd amounted to 1.9 nM in experiment [1] and 0.00281 nM in experiment [2].

Source of the values: US20180155415A1 (published 2018).
